From patent publication US20110002929A1 (Ablynx, published 2011)
Where a chain is given by its changes, count along the chain named. Like-named read-outs stand apart in the source and are kept apart here. Each block holds one binder with its values, some of them ahead of it.

Assays:
[1] = target: T1, human RANK-L (human, UniProt O14788 140-317, limits assumed); assay: ELISA (ED50), biotin-hRANK-L on neutravidin
T1 construct: Soluble protein, used coated, biotinylated or labelled in ELISA, AlphaScreen, FMAT and Biacore; also called hRANK-L; soluble human RANK-L
T1 sequence (looked up): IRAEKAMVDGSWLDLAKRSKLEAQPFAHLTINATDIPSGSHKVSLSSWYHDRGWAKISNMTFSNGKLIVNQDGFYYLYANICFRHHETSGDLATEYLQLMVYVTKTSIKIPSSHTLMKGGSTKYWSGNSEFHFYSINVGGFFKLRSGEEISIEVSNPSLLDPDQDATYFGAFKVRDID
Procedure: (§1) Therefore 2 μg/ml neutravidin was coated overnight at 4° C. The plates were washed 5 times with 300 μl PBS and then blocked with […] 1% casein/PBS for 2 hours at room temperature. […] After extensive washing with PBS, varying concentrations of Nanobodies starting from 500 nM to 160 pM diluted in 1% casein/PBS were added to the wells and the plates were incubated for 1 hour at room temperature. Bound Nanobodies were detected by subsequent incubations of a primary mouse anti-myc antibody and a secondary anti mouse-HRP conjugate (DAKO, Glostrup, Denmark) and using TMB-H2O2 (Pierce, Rockford, Ill., USA) substrate cocktail. The reaction was stopped with H₂SO₄ and the OD was read at 450 nm.

[2] = target: T2, mouse RANK-L (mouse, UniProt O35235 158-316, limits assumed); assay: ELISA, set-up as for human RANK-L
T2 construct: also called murine RANK-L
T2 sequence (looked up): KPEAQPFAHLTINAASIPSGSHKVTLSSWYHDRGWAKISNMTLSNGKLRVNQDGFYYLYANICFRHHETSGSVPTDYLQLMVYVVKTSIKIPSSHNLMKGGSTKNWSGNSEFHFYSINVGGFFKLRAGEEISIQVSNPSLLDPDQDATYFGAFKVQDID
Procedure: as §1

[3] = target: T1, human RANK-L; assay: AlphaScreen, biotin-hRANK-L / RANK-huFc beads
Procedure: To this mixture, the RANK acceptor beads and the streptavidin donor beads were added and further incubated for 1 hour at room temperature. Fluorescence was measured by reading plates on the EnVision Multilabel Plate Reader (Perkin Elmer) using an excitation wavelength of 680 nm and an emission wavelength of 520 nm.

[4] = target: T1, human RANK-L; assay: AlphaScreen, biotin-hRANK-L / RANK-huFc beads; remark: listed apart in the source
[5] = target: T1, human RANK-L; assay: AlphaScreen, biotin-hRANK-L / RANK-huFc beads; remark: listed apart in the source
[6] = target: T1, human RANK-L; assay: SPR Biacore 3000, hRANK-L on CM5, 100 nM Nanobody
Procedure: (§2) Binding kinetics of the humanized versions of Nanobodu RANL13 were also analysed by Surface Plasmon Resonance (Biacore 3000). […] Nanobody binding was assessed at one concentration (100 nM). Each Nanobody was injected for 4 minutes at a flow rate of 45 μl/min to allow binding to chip-bound antigen. Next, binding buffer without Nanobody was sent over the chip at the same flow rate to allow spontaneous dissociation of bound Nanobody.

[7] = target: T1, human RANK-L; assay: SPR Biacore 3000, hRANK-L on CM5, 100 nM Nanobody; only indicative (one concentration)
Procedure: as §2

B1: RANKL4 (VHH)
VHH: KVQLVESGGGLVQTGDSLRLSCAASGRAIGSYAMGWFRQAPGKEREFVAVINYRGSSLKYADRVKGRFTISRDNAKNMVYLQMNSLKPDDTAVYYCAAQTSGADFGTTPQRYTYWGQGTQVTVSS
notes: not shown: c-myc and His6 tags
EC50 [1]: 0.38 nM
binding result [2]: no binding (tested: 500 nM to 160 pM)
IC50 [3]: 0.582 nM

B2: RANKL12 (VHH)
VHH: EVQLVESGGGWMQAGGSLRLSCAASGRTFTMAWFRQAPGKEREFVAAITGSGRSTYYTDSVKGRFTISRDNAKNTAYLQMKSLKPEDTAVYYCAGLRGLGLEYDSAKSYSYWGQGTQVTVSS
notes: as for B1
EC50 [1]: 0.399 nM
binding result [2]: no binding (tested: 500 nM to 160 pM)
IC50 [3]: 0.627 nM

B3: RANKL7 (VHH)
VHH: EVQLVESEGGPVQSGGSLRLSCAASGRTFSVSTIAWFRQAPGEGREFVAAIYPSGRNAYVADSVKGRFTISRDNAKKTVYLQMNSLKPEDTAAYYCAAHQPSGSYYSAEAYAYWGQGTQVTVSS
notes: as for B1
EC50 [1]: 0.376 nM
binding result [2]: no binding (tested: 500 nM to 160 pM)
IC50 [3]: 0.459 nM

B4: RANKL11 (VHH)
VHH: EVQLVESGGGLVQAGGSLRLSCAASGRTFSSKTMGWFRQPPGNEREFVAAITPTSRTTYYADSVKGRFTISRDNAKNTVSLQMNSLKFEDTAAYYCVAVRRYGSPPHDGSSYEYWGQGTQVTVSS
notes: as for B1
EC50 [1]: 0.517 nM
binding result [2]: no binding (tested: 500 nM to 160 pM)
IC50 [3]: 1.17 nM

B5: RANKL8 (VHH)
VHH: EVQLVESGGGSVQPGGSLRLSCAASGGTFSRYAMGWFRQAPGKEREFVSAISVGGTYQYYVDSVKGRFTISRDNAESTVYLQMNSLKPEDTAVYYCAGDASPYGYLREYTATRFDYWGQGTQVTVSS
notes: as for B1
EC50 [1]: 0.652 nM
binding result [2]: no binding (tested: 500 nM to 160 pM)
IC50 [3]: 0.755 nM

B7: RANKL1 (VHH)
VHH: EVQLVESGGGLVQAGGSLRLSCAVSGRTFSSSTMAWFRQPPGGERDFVASISTSGTRTLYADSVKGRFTISRDNAKSTGYLQMNSLKPEDTAVYFCAAVNRRGWEFWRLASGYDYWGLGAQVTVSS
notes: as for B1
EC50 [1]: 0.619 nM
binding result [2]: no binding (tested: 500 nM to 160 pM)
IC50 [3]: 0.739 nM

B10: RANKL16 (VHH)
VHH: EVQLVESGGGLVQAGGSLRLSCVASRRTFSSYAMGWFRQVPGKERDFVAAISTGSITIYGDSVKGRFTISRDNAKNTVYLQMNSLKPEDTAVYYCAAGKREPYLRQYTASNPYDYWGQGTQVTVSS
notes: as for B1
EC50 [1]: 0.953 nM
binding result [2]: no binding (tested: 500 nM to 160 pM)
IC50 [3]: 2.25 nM

B13: RANKL19 (VHH)
VHH: EVQLVESGGGLVQAGDSLRLSCAASGRTVTMGWFRQAPGKEREFVASITGSGSVTNYADSVKGRFTISRDNAKNTVFLQMNSLKPEDTAVYYCAAYLPSPYYSSYYDSTKYEYWGQGTQVTVSS
notes: as for B1
EC50 [1]: 0.506 nM
binding result [2]: no binding (tested: 500 nM to 160 pM)
IC50 [3]: 2.24 nM

B16: RANKL13basic (VHH)
VHH: EVQLVESGGGLVQPGGSLRLSCAASGRTFRSYPMGWFRQAPGKGREFVASITGSGGSTYYADSVKGRFTISRDNAKNTLYLQMNSLRPEDTAVYSCAAYIRPDTYLSRDYRKYDYWGQGTLVTVSS
notes: Humanized variant of RANKL13; also called RANKL13humbasic
IC50 [5]: 0.159 nM
koff [6]: 0.000189 s⁻¹
Kd [7]: 0.214 nM
kon [7]: 885000 M⁻¹ s⁻¹

B18: RANKL13hum3 (VHH, name in Kabat numbering)
VHH: B16 VHH with A49S
notes: also called RANL13hum3
IC50 [5]: 0.196 nM
koff [6]: 0.000174 s⁻¹
Kd [7]: 0.264 nM
kon [7]: 659000 M⁻¹ s⁻¹

B19: RANKL13hum2 (VHH, name in Kabat numbering)
VHH: B16 VHH with R30S
IC50 [5]: 0.191 nM
koff [6]: 0.000232 s⁻¹
Kd [7]: 0.88 nM
kon [7]: 264000 M⁻¹ s⁻¹

B20: RANKL13hum1 (VHH)
VHH: B16 VHH with R27F
IC50 [5]: 0.123 nM
koff [6]: 0.000145 s⁻¹
Kd [7]: 0.106 nM
kon [7]: 1.37e+06 M⁻¹ s⁻¹

Results, then the binder that gave them:

IC50 [4]: 0.026 nM
B6: RANKL133 (VHH)
chain: EVQLVESGGGLVQAGGSLRLSCAASGRTFRSYPMGWFRQAPGKEREFVASITGSGGSTYYADSVKGRFTISRDNAKNTVYLQMNSLRPEDTAVYSCAAYIRPDTYLSRDYRKYDYWGQGTQVTVSSGGGGSGGGGSGGGGSGGGGSGGGGSGGGGSEVQLVESGGGLVQAGGSLRLSCAASGRTFRSYPMGWFRQAPGKEREFVASITGSGGSTYYADSVKGRFTISRDNAKNTVYLQMNSLRPEDTAVYSCAAYIRPDTYLSRDYRKYDYWGQGTQVTVS
notes: Bivalent Nanobody; also called RANKL13-30GS-RANKL13

EC50 [1]: 0.574 nM
binding result [2]: no binding (tested: 500 nM to 160 pM)
IC50 [3]: 1.75 nM
B8: RANKL14 (VHH)
VHH: EVQLVESGGGLVQAGGSLRLSCAASGRTSSYYTMSWFRQDPGKEREFVAAVPLSGNTYYADPVRGRFTISRDNAKNTADLQMNSLKPEDTAVYYCAARASGSIYNRGSYAYWGQGTQVTVSS
notes: as for B1

EC50 [1]: 0.379 nM
binding result [2]: no binding (tested: 500 nM to 160 pM)
IC50 [3]: 3.02 nM
B9: RANKL22 (VHH)
VHH: EVQLVESGGGLMQTGGSLRLSCAASERTSRNYGMGWFRQAPGKEREFVAAITSAGGTTYYGDFVKGRFTISRDSAKYTVYLQMNSLKPEDTAVYWCAAKLQIGGRWHNLNDYGYRGQGTQVTVSS
notes: also called 7D12; not shown: c-myc and His6 tags

EC50 [1]: 0.861 nM
binding result [2]: no binding (tested: 500 nM to 160 pM)
IC50 [3]: 1.58 nM
B11: RANKL21 (VHH)
VHH: B10 VHH with S30N, M34V, K43E, I56V, G60A, K99N
notes: as for B1

EC50 [1]: 0.453 nM
binding result [2]: no binding (tested: 500 nM to 160 pM)
IC50 [3]: 0.737 nM
B12: RANKL17 (VHH)
VHH: EVQLVESGGGLVQVGDSLRLSCEASGRSRFSTYVMGWFRQAPGKEREFVAAVSWSSGNAYYIDSAKGRFATSRDTAKNIMYLQMNSLKPEDTAVYTCAAGRGYGLLSEYTQAPRYDYWGQGTQVTVSS
notes: as for B1

EC50 [1]: 0.306 nM
binding result [2]: no binding (tested: 500 nM to 160 pM)
IC50 [3]: 1.36 nM
B14: RANKL20 (VHH)
VHH: EVQLVESGGGLVQAGDSLRLSCAASGRTFTMGWFRQAPGTEREFVAAISGSGKITNYADSVKGRFTISRDHAKNTVFLQMDSLKPEDTAVYYCAGYLRSPYYSSFYDSAKYEYWGQGTQVTVSS
notes: as for B1

EC50 [1]: 0.679 nM
binding result [2]: no binding (tested: 500 nM to 160 pM)
IC50 [3]: 3.53 nM
B15: RANKL23 (VHH)
VHH: EVQLVESGGGLVQAGGSLRLSCAASGLTTVYTMAWFRQAPGKEREFVAAITRSGKTTYYADSVKGRFTISRDNAKNTVNLQMNSLKPDDTAVYYCAAKALLGMTNPAGYEYWGQETQVTVSS
notes: also called 9H5; not shown: c-myc and His6 tags

IC50 [5]: 0.223 nM
koff [6]: 0.000204 s⁻¹
Kd [7]: 0.538 nM
kon [7]: 379000 M⁻¹ s⁻¹
B17: RANKL13hum4 (VHH, name in Kabat numbering)
VHH: B16 VHH with S95Y
